According to IntAct's records for PubMed 19197237:

B1: Peroxisomal membrane protein PEX14 (Homo sapiens), O75381 (parent)
chain: MASSEQAEQPSQPSSTPGSENVLPREPLIATAVKFLQNSRVRQSPLATRRAFLKKKGLTDEEIDMAFQQSGTAADEPSSLGPATQVVPVQPPHLISQPYSPAGSRWRDYGALAIIMAGIAFGFHQLYKKYLLPLILGGREDRKQLERMEAGLSELSGSVAQTVTQLQTTLASVQELLIQQQQKIQELAHELAAAKATTSTNWILESQNINELKSEINSLKGLLLNRRQFPPSPSAPKIPSWQIPVKSPSPSSPAAVNHHSSSDISPVSNESTSSSPGKEGHSPEGSTVTYHLLGPQEEGEGVVDVKGQVRMEVQGEEEKREDKEDEEDEEDDDVSHVDEEDCLGVQREDRRGGDGQINEQVEKLRRPEGASNESERD
partner: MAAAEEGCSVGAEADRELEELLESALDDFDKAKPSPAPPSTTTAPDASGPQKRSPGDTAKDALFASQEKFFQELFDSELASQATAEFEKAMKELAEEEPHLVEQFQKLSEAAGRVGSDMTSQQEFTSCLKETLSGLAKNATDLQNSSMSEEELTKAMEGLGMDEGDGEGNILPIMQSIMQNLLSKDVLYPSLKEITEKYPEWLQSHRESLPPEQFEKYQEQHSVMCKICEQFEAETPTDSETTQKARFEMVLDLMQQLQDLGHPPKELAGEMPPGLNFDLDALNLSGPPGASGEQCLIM
B2: Peroxisomal biogenesis factor 19 (Homo sapiens), P40855 (parent)
chain: B1 partner

Variants of: B1
Conditions: with pex19_human PEX19, P40855

effect of a mutation on the interaction | Variant
decreasing interaction | R49E

Variants of: B1
Conditions: with pex19_human PEX19, P40855
Remark: another data set of the same source

effect of a mutation on the interaction | Variant
decreasing interaction | K56E

Variants of: B1
Conditions: with pex19_human PEX19, P40855
Remark: another data set of the same source

effect of a mutation on the interaction | Variant
disrupting interaction | F52W

Variants of: B2
Conditions: with pex14_human PEX14, O75381

effect of a mutation on the interaction | Variant
disrupting interaction | F70A

Variants of: B2
Conditions: with pex14_human PEX14, O75381
Remark: another data set of the same source

effect of a mutation on the interaction | Variant
disrupting interaction | F71A

Variants of: B2
Conditions: with pex14_human PEX14, O75381
Remark: another data set of the same source

effect of a mutation on the interaction | Variant
disrupting interaction | L74A

Variants of: B2
Conditions: with pex14_human PEX14, O75381
Remark: another data set of the same source

effect of a mutation on the interaction | Variant
disrupting interaction | F75A

Variants of: B2
Conditions: with pex14_human PEX14, O75381
Remark: another data set of the same source

effect of a mutation on the interaction | Variant
disrupting interaction | E68A
